According to IntAct's records for PubMed 22826121:

B1: Protein KASH5 (Mus musculus), Q80VJ8 (parent)
chain: MHSILRSSLSSREALRMRQLKGLRKERPGRHPLGVRLRAIWTSFLFPNPPHSGGKLRASTAAVEEHQEWSMDLPEGQAGGPTAQMYLWEQPEEASSRPLLSLEEQILNSTFEACDPHKTGTVTVAHLLAYLEAVTGQGPQDVRLQTLARSLDPYGEGAGATVELDTFLVVMRDWIAACQLQGGLERAEETAYEGALASPHLPSVCPEAEESANLESFGGEDPRPEGPATAELLSNLEDLELSNRRLAGENAKLQRSVETAEEGSARLGEEITALRKQLRSTQQALQVAKALDEELEDLKTLAKSLEEQNRSLMAQARHTEKEQQHLAAEVETLQEENEKLLAERDGVKRRSEELATEKDALKRQLCECERLICQREAVLSERTRHAESLARTLEEYRTTTQELRQEISNLEEQLSQSQEGPEELLEGAEAGRVGWIMALPPSLDLEIQAIRQEQDVASAGLSSPLYGVWQWEEVEPEPEPEPEPEPEPEPQEVEFPSEDPARQQTDLQREPVRALEGSRAPCLRLSRSQEEEEEEEESWVLADPSSPLGTYHHKLAPGSSRESCHIVPEMHQALMPVVRDLVPVERSRTQHCLHPQHSPGIRISQHPLVPTPVLGLLLLLLLSILLFSQSPPPTWPHLQLYYLQPPPV
B2: Protein KASH5 (Mus musculus), Q80VJ8 (parent)
chain: B1 chain
partner: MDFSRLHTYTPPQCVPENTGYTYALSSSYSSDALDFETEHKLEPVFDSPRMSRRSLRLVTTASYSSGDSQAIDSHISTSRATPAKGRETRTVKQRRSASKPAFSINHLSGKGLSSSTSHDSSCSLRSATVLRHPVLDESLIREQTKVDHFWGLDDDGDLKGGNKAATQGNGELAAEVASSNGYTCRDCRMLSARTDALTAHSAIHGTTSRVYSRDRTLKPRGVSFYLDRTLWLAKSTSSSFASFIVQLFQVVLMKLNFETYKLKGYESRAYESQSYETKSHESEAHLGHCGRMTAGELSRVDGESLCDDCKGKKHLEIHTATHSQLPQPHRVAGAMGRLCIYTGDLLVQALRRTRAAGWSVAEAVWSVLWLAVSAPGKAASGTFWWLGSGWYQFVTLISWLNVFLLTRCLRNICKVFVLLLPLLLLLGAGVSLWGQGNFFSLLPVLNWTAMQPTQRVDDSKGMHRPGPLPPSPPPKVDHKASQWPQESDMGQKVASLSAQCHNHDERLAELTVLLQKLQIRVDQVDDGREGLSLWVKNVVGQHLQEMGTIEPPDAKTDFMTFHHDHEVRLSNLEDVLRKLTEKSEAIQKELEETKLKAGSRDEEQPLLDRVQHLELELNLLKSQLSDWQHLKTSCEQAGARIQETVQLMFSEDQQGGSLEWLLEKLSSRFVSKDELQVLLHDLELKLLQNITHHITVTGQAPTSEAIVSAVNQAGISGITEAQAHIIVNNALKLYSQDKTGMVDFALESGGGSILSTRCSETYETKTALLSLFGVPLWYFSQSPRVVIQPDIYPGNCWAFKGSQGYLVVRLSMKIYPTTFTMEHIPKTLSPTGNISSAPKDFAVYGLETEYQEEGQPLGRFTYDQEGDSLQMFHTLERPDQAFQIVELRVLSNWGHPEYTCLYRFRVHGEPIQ
B3: Protein KASH5 (Mus musculus), Q80VJ8 (parent)
chain: B1 chain
partner: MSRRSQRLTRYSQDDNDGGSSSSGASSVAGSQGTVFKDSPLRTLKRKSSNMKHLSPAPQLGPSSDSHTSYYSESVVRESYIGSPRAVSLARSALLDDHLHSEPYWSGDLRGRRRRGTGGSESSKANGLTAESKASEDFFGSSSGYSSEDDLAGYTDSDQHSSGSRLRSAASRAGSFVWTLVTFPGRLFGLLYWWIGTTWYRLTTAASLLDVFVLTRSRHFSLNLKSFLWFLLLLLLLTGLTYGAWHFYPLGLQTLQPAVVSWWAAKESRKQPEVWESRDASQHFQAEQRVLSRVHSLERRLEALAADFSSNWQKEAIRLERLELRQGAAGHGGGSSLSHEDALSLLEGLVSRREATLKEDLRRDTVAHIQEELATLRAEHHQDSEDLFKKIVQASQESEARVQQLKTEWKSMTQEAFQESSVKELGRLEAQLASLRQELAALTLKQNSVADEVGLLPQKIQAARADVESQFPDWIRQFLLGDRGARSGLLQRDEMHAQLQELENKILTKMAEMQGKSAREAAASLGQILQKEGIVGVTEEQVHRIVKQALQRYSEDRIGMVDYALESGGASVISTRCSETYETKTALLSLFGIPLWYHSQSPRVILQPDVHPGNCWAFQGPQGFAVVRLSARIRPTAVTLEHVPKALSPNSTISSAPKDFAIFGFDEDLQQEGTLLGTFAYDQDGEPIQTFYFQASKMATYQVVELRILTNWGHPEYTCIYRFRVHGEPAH

Variants of: B1
Details: with sun1_human SUN1, O94901
Chain of sun1_human SUN1, O94901 (O94901 whole entry): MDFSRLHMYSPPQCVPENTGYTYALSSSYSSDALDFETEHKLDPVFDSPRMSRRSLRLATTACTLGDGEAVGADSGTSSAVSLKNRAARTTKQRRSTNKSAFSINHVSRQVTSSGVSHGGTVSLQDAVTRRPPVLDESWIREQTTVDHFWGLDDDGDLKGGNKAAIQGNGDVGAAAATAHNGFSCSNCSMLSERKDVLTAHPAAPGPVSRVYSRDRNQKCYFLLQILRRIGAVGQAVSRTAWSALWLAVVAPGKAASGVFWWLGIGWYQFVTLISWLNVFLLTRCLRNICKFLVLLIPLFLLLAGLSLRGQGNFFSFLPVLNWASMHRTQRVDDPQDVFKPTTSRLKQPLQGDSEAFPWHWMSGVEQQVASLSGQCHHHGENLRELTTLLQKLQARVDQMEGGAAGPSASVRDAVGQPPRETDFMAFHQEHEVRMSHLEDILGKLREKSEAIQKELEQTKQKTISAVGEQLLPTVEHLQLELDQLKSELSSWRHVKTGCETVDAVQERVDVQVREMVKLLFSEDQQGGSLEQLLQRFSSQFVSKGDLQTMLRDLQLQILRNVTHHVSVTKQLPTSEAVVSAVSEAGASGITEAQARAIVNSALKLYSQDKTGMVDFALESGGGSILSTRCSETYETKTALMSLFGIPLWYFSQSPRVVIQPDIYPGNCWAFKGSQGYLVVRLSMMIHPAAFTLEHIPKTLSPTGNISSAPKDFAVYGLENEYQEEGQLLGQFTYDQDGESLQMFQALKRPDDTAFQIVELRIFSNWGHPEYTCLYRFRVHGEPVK

Variant | effect of a mutation on the interaction
P645A;P646A;P647A | disrupting interaction

Variants of: B2
Details: with sun1_mouse Sun1, Q9D666

Variant | effect of a mutation on the interaction
P645A;P646A;P647A | disrupting interaction strength

Variants of: B3
Details: with sun2_mouse Sun2, Q8BJS4

Variant | effect of a mutation on the interaction
P645A;P646A;P647A | disrupting interaction strength
